Data on 22 sequences can be found in the DeepSol protein solubility set.

The series in a line: soluble on expression in E. coli; label from the status in PepcDB or PDB records.
Regarding “MAHHHHHHMDYEEPGQATRELTTFVQGLLQNMQTRFQEMSDTIITRIDEMGTRIDDLEKNIAELMQQAGPDEEAAQTASAPKDKKKSKGK”, the “soluble on expression in E. coli” value is reported as “soluble”.
Under “MAHHHHHHMEAVFYAFASFGTAPTKEMDNAHFSKMLKEAKIIGKTFTSTDADLLFNKIKAKGARKITFTEFNTRALPDIATKLKMTPEQVAEILTKASPASNSTKAEAVKFHDDKNLYTGVYKAGGPTNVDRNAGSLSGVVDRRVDQVDVRGTTSSQK” stands “soluble”; under “MAHHHHHHMEDEKVGTANNDEKVTMSMPEEYMPKNISEILIGAVEEDRTYALKGDEPCDSYIKLGEIVHGTNEKTTQFTFPKNKVLCVQLEAINGNGYLWALLGVHKEKPQINPEEFPRKKITKSFFTNEISVTQPKAIQKNTSNNGGDISPNSSGYGKPRGSEHLGGFVGGASTLQSMVKAHKAGTFYIVYSYYRPFDPTASANTKILQLTVS”, “soluble”; under “MAHHHHHHMEDTINVFGRGTPAGEAIYRCYVAPSKPSTLDPQLAALLARRRQEREAAEAAQAHPKPIPKSKAPVHRPRVGMGKRPTEEEYARWRLQHIPHRRSKAAIEAEEEAHRWVPPPVSERFARPAITDAEKDRLADVMAYGAELPKPKEFTGVQRARFHRLEPRAELEDRFTKLRQTAQEVQSELAQLRQSAPGAGASLPSGGRVVESVSDPQARLSQRRSCGGGGDPATASPCPLASAASPGAAAARDVLSIGGTRVGRQGDSKMSTIERCRQERELQSHLGTVIAEMEAVDRELNRLPISS”, “soluble”.
Then “MAHHHHHHMEEGDQATDAAETSALAANTLTREEQPDERSKNEVTLLEIKRKVQNEKEAQKDDNKQRKFKIINYTSKDSLVSKVEKEFFLFFCFLCGFNCLISETDVADLPRRKTDGSIIFPFKKIVHKKYYKTKKECILIRRREDALEVQFRILCKECGVPIGYVNSLADDNAYVYYYDYSFVRSQTKSRLFKDVSL”, with “not soluble”; and “MAHHHHHHMEEGGRYAACKAELYKLQEKIKTQETPRDNCAEKEKMWEKQRSELEQEKDECLRTSDAHRTQKQDLEDRVRYMDGLTRAMISEKRFAEERRNISEKENEDLKTRVRVLTHKLGVLTAMVQKLHISHMIKDMGIAMLQAEAKQAAEEMETNHKKDVAAAEERVLQECKEKFCFDSSGNLNAAVFIEHNISKENRSFLLEQLNCSKENQGDTKREWRFWRKGANDSSRPKKSADHSESNGSSHGNNIHLVLRVCLSLLLLTALS”, with “not soluble”.
Under “MAHHHHHHMEEQESAENINMIKETIFGLPNSVILKIIHNNINLKNYKIRKEAVTTLGRCLSMFILYITDGALEHCEGEKRNTIFVRDILNSLDDSLFLDIYDELKRQIAIQEEIHKKESAKEAKSAAKGDTPSGADNAQGETNQVNKQDDLDILLQALE” stands “soluble”; under “MAHHHHHHMELLTSVFQRHPPALRLHRELTIALADGDSARAADLASVLATTVQRVVAAEADSSDAATPPEGHANTGHFSQRDIPVAGLEDVEEAVEKTRQTLLREATVRVSSGVARDTGGSAISSEPAAAERSLPFWRDPERLCVTILESMFETEVLGGESQDTLTAAGNRAAEHEAEQVRILDAYLDKEGARWNAQKAAIAKIVLDVTRSLGLTPEDLQAFEGISASAGAGAAAAAGERKLNVLRHSNLVIRGEMPSAPLSSTASECVAEGVETELRALEERMSSLGQPLTPWEVRMARYELQMSKSKMRYVVGVHKELQLALDHSAALRASLREKSTAEVTFTTGTEVFMAEVIRALNEGADAYSANVTAEGAQLTVSNVKAREAVESPVLPFTFMLKGSLWFTTAPSRPPSSSSD”, “soluble”.
For “MAHHHHHHMFFCPFCSTLLLVVPHVEGNALVCATCRYVHSVASASPQVPRNAFGEPILTIQHSFVAHNRQLMDAEEDPAMEAAASSSAAACHTTAAFTPVVKAETSAEGGQITTIPCQNEDNPCQSTKAYFIQIQMRSADEPATVFFKCVECGHQWRQD”, the “soluble on expression in E. coli” value was “not soluble”.
In the case of “MAHHHHHHMFLIVDAGDMLVEGLFVEANNTTLHYREKFIVKNTDGSMAINAASMTRQLHPRKQMHLHPSSLPIAIHQDNRTPLQHMLRGTHHMQRPTVVSCNTPTMAIMKGTEDVVLRRDTTTRHAGAQFRALQDLLQLKRARAGHTHLTSRSKWIGLDRQKRTPHRF”, the “soluble on expression in E. coli” value was “not soluble”.
Under “MAHHHHHHMFLRVPLFVAHLRLLPRQRIYMGAHCGGNIWANGRSVSVHFMVGWCYTMSRDVAEASVSFKPLRRLAHTPYSKERDEEFSSIGMGHEDMMVGHVLLDEVKYQPLIHVKVLPCHFLEARSDTGESQVVPTSMCVHHIREDDYAALMARFGNDTSPVARLWRVSEDVIYPSCD” stands “not soluble”.
Under “MAHHHHHHMGCGGSKPNAVSRDVEEKALYLRGIKESIDKAEGNMLATLHALQALMRSYESTSYSFVELAHGTDGNTSLKAKTFESDMRTLKDSGIMPKLQKDLGQSVSSLGKDIRAKHDKANVVYREMTQANDAYCKLRERVNGIEKSYAKKNKPVSECPSYTKNCKERDVCLARYEGLKKVFLTLVEELRTLIRSYVTAGLTRYAFSTADYAQQLVNSLQKYKSE” stands “soluble”.
Under “MAHHHHHHMGCTASKTKTPAANVASKGADEFYALATTERHPVAEKLLEEWVLFVDAQARRNAGDSSAARAYETRLKEVWADTTNRPVTHRSVDYVGKMFLEYIKEDLSHRGWGGNFDYKVAGVVTQGFLKANANIDTALSDTPEEVTWEIKIHYDSLGVS” stands “soluble”; under “MAHHHHHHMGDNGGMVLFKAIAGAIEDGEDKLEYLNLEVNELGEKTAKAMQRVLSSSTALKTLRLSYNSFGGASKYIMEGLAENKYLRSLFLSFCEIREADGAAIGTALTANSTLQHLDLSNNKLKDAGSKCIAEAMKTNEGLISLNLSCNKIADDGGKAIALFLTSNRTLRELNLRRNCMSNATGELLDDQLRGNMTLEKMNVGFNDFRYKSLIGHRTTLARNAEKNKSLIVPKLRAEIEGLSFKERDLSQAEDEIEMERRIIKDRSEQLLRRNEEARVASEKARREIADLEKNLAAVRVRFESAEEVLLRTEERVSNEMAEISGRKANMEARVQQEREKVDRLQREMDRVRRQLKQLEEAEASRLKPLFLEFGIAEADRDREAKECQYEADKLAALELQRKELEKKLGLSLPVAGGVSAPTAKKRK”, “not soluble”; under “MAHHHHHHMGFWVFDRVADGFLFRGRRQLSRLHQRNAMLDANGMPLTGDLAAEATTWRSQHAFSGRCGLSVKRSPEPHDNRDEARRNGGGDVPHPEKMLPSYECIISRSPNDYRAWAVDFHLQSTSEDPHVLLSVAPYYAPLQSNFVEGGRSWHPPTTEEQEMYDKRMLETPLIWEEPMTLSLDCTNSGMFLWSEEWKIFGEKIADNCFSRRSQSRGGDDSVDQMGGVSGVREGPYEAFVRLSWRMMSAGENDMYGGEKRSLSDASVRNIIVGPCQGEMTVFLRTSSSDQEEGDVSVPRQINGTGNVGAHGGESVSSGVQVWKRAGGRAVLGDDIPNEIYFTPYVTLMDAGDEAILL”, “soluble”.
“MAHHHHHHMGIYSDTDDDSPIGIEVVGEASSDSEEPNPHSTTKRKVSGAVDHNNGYNQKKNKRRRLKNKWEENPQLHETPDEEQISNVKKRVYVLDTCSIVEHIEWSILEEVAKYYLIIIPKKVMDELGKMEGGRGSTCNRVLNKLENEHTSNKMNVGFRLQRKNDKDKNVLSAARVNDDHILSCACSFRNEHDVVLVTSDNILKLKAYAEGIPTVSTLKDVTRLTNGLRGGKFE”: the “soluble on expression in E. coli” value was “not soluble”.
Then “MAHHHHHHMGKPKYLKKKQAAAAAGSEDGADKDVSDNTENTNGSPTTTNALGKQSEAAKEEPHSSGAMVSFANPVYRQGVNDILVEKLDISYQGNAILENATLNLVSGHRYGLVGPNGCGKSTLLRVLGCHEIPFPSHVDRYYVSQEVEASDMSALDAVLAVDKEREKLESEMEDLALGDQEDPHVLSRLDDIYKRLDELDADTAAARAGKILFGLGFTKEMQRRPTKAFSGGWRMRISLAQALFINPTVLLLDEPTNHLDIEAVVWLENYLSKFKKTLFMVSHSQDFMNNVCTDICHMHLKKLNCYDGNYDQYCITREEKESNQMKKYQWEQNQIKNMKEYIARFGHGSAKLARQAQSKEKTLAKMTRGGLTDAVVKDSRINFEFPCAGPLPPPMLQFREVSFNYPGRPSLFTNLDLGVNMDSRICLVGPNGAGKTTLTKLMCRELEPTAGYVAKNAHCVMARFHQHFVDQINMDLTPLEWMSQEYPDVTQPPILRSALGRFGVSGKAQMTPMKTLSDGQKSRVVFAWMAYKRPHFMILDEPTNHLDIESIDALADAINNFEGAVVVVSHDLRLLAQVADEIWIVEQGEAKRFNGDIADYKEHVQNEVNRMMQNYAASL”, with “not soluble”.
Then “MAHHHHHHMGQGFSRAQMEEYKELVKDRFSEEAIEFLFMKFHKAAPEGVMTPVEFKRYIDSTGVYKNYRRTHLASWFPSYAKYTHSKGGNRAVRKTSAQILDREMYLHLFRAYDRDCDGVISFREFLLYHLAVMYSTEELFVVVFNAYDDDQDGYLSLDDIRNTITAATRYVGDCDVEDQEVQRVIDEEAQRLMFFLDVRKDGRIRRDDMRLITQKHPEVLEKMKNLM”, with “soluble”; and “MAHHHHHHMGSSSPSSLLPPALMPCHVWEGREEGISVETARGRREVEINRKKGHMASPKEMYEKECRALGVPPNSGLLRMLPESTVNLSGLSVMHLGHNFLGDRGVVPFVHIIAHASSLHTLNLRENGIGNEGVRVLCRGLRRLPALKVLELSGNPFTFLAARQLVYLCEDSPVLSVIGVEGTLMTEKLKTSIIHRIREAVKRREARKQLSQQPSADRDDGQKDMAEGVAEAEGKVVERAAPIAAEEATTLRSRNVGGPCLRKSVLSLVSQDSMSTAMSSKFKKNEPDDQAGPRGANEFASPCSPLPPPPPDDAHQSPLWFDASEDEEQKEEKKEISVATAENDEKMMIDTAGSISFLVDVEELRANSVERELRAQEEMLPWQVSRADDPLRSLHSTHTRIASHRTTEKRSESGTAISFPSSFTLELRTAEAEGKLAECTKSTKGDDFLDLLFGSEVD”, with “not soluble”; and “MAHHHHHHMGTLEAQTQGPGSMAKTMKAAVVRAFGKPLTIDEVPIPQPGPGQIQVAIQASGVCHTDLHAAEGDWPVKPNPPFIPGHEGVGFVSAVGSGVKHVKEGDRVGIPWLYTACGHCRHCLGGWETLCEEQLNTGYSVNGGFAEYVVADPNFVGHLPKNIDFNEIAPVLCAGVTVYKGLKVTDTKPGDWVVISGIGGLGHMAVQYARAMGLNVAAVDIDDRKLDLARRLGATVTVNAKTVADPAAYIRKETDGGAQGVLVTAVSPKAFEQALGMVARGGTVSLNGLPPGDFPLSIFNMVLNGVTVRGSIVGTRLDLQESLDFAADGKVKATIQTGKLEDINAIFDDMRQGNIEGRIVMDLTQ”, with “soluble”.
Under “MAHHHHHHMGTLEAQTQGPGSMFELSDLPYEGLEPYISSHLLDRHYNGHHKTYVDVLNKLVVGTEFEGLGNESLGDIVVKAHNSGSAGRAIFNNAAQIWNHDFYWQSMKPNGGGNPPEKLREMIEHSFGSVEGFNNAFTTSGLGQFGSGWVWLVYDEDAKALKVVSTANADSPLLTQGQLPLATMDVWEHAYYLDYLNLRKKYIDVFLEHLLNWDFVLGRLEDAGVL” stands “soluble”.
Take “MAHHHHHHMGTLEAQTQGPGSMKISFSEIIHNALKEDLGDKGDITTNSILINEKVNFAINTRENLVVCGIPILEEVFNMNKEHVKYEIHKKDGDITGKNSTLVSGEALAIYLLPIERVILNFIQHASGIASITRQFVDEVSGTKVKIRSTRKTTPGLRMLDKYSVCIGGGESYRDNLCDGVLIKDNHIASCGSITLAIQRLRKNLKNEYIAIECDNISQVEESLSNNVDMILLDNMSISEIKKAVDIVNGKSVLEVSGCVNIRNVRNIALTGVDYISIGCITNSFQNKDIGLDIEYNNNK”: the “soluble on expression in E. coli” value is listed as “soluble”.
